We go through 2 substances from PMC2661964, “Mammalian Kinesin-3 Motors Are Dimeric In Vivo and Move by Processive Motility upon Release of Autoinhibition” (PLoS Biology, 2009).

The target in experiment [1] is KHC(1–891)-3xmCit. Description: stepwise photobleaching of single molecules (TIRF microscopy); lysates of COS cells expressing 3xmCit-tagged constructs, in flow chambers with Cy5-microtubules, with AMPPNP; number of bleaching steps of 160–200 spots for each construct.
For experiment [2], the target named is mCit-KHC. The experiment in a line: FRET or BRET; FRET stoichiometry (average FRET efficiency, E AVE) in live COS cells coexpressing mCit- and mCFP-tagged motors; Kinesin-1 with HA-KLC coexpressed. Background: Bioluminescence resonance energy transfer reports proximity on the nanometre scale.

What is called stoichiometry N is the number of molecules, sites or subunits per partner or assembly. In experiment [1], KHC(1–891)-3xmCit (domain or fragment) yielded a stoichiometry N of 2. Regarding mCFP-KHC (natural protein), in experiment [2], the average FRET efficiency (E AVE), motor-to-motor turned out to be 2.1%.
